Laboratory results published in publication PMC9506717.

Details: glycan lost

Substance | other: Spike incorporation into virions | expression_or_secretion | other: viral entry
Spike: N61Q/N657Q | decreases |  | 
Spike: N61Q | decreases | no change | 
Spike: N61/603/657Q | decreases | no change | 
Spike: N603/657Q |  | no change | 
Spike: N61/603/657 triple mutant | decreases |  | 
Spike: N657Q |  | no change | 
Spike: N616Q |  | no change | decreases
Spike: N61/657Q | decreases | no change | 
Spike: N801Q | decreases | no change | 
Spike: N603Q |  | no change | 
